Measurements as given in PMC11272584 (Nature Metabolism, 2024).

T1: GIPR L304R (Homo sapiens, UniProt P48546, L304R)
T1 construct: host or cells: HEK293
T1 sequence (P48546 22-466 L304R): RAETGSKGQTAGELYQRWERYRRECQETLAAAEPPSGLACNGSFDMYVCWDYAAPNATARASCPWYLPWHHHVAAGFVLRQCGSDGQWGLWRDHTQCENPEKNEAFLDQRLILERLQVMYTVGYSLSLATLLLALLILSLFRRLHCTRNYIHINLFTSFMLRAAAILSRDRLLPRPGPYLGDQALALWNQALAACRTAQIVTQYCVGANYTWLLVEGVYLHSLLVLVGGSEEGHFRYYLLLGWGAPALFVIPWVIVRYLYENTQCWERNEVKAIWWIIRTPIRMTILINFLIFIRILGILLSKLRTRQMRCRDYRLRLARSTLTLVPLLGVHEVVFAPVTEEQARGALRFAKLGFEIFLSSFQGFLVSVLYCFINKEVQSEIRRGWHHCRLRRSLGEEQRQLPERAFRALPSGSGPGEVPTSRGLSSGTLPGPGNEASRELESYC

T2: GIPR R336P (Homo sapiens, UniProt P48546, R336P)
T2 construct: host or cells: HEK293
T2 sequence (P48546 22-466 R336P): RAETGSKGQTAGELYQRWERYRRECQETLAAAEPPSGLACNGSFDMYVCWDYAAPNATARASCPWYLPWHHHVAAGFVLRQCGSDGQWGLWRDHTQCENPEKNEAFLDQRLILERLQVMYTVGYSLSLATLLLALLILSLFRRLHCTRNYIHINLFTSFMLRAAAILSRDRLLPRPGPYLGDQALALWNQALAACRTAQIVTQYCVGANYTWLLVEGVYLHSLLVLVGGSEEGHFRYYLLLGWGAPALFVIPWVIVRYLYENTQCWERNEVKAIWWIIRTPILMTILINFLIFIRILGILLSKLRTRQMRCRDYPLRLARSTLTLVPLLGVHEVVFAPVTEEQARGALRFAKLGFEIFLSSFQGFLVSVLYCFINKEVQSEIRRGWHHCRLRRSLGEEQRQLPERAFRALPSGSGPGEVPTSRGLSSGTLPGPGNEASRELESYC

T3: GIPR E354Q (Homo sapiens, UniProt P48546, E354Q)
T3 construct: host or cells: HEK293
T3 sequence (P48546 22-466 E354Q): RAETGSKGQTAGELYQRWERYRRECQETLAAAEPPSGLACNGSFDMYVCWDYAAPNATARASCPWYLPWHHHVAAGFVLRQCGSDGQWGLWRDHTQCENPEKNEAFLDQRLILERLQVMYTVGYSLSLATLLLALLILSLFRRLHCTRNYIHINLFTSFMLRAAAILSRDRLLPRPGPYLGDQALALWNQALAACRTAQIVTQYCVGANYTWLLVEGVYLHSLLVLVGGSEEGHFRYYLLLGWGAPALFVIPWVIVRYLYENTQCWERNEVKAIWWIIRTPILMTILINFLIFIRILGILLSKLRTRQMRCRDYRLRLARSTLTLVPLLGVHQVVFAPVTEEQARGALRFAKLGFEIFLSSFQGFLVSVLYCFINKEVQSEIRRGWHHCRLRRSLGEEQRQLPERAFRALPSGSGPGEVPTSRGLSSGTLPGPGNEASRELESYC

T4: GIPR I378M (Homo sapiens, UniProt P48546, I378M)
T4 construct: host or cells: HEK293
T4 sequence (P48546 22-466 I378M): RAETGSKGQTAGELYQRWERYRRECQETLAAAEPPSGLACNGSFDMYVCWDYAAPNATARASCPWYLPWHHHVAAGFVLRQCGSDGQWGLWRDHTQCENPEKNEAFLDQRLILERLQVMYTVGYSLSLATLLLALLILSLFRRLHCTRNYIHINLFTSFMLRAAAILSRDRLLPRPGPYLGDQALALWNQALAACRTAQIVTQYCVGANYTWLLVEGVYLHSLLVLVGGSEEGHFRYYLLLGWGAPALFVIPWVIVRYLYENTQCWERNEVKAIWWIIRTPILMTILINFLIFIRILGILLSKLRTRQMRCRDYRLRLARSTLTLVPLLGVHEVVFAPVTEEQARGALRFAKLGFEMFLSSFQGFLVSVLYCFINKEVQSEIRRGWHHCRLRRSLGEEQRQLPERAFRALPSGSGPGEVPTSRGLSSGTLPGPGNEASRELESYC

T5: GIPR S382T (Homo sapiens, UniProt P48546, S382T)
T5 construct: host or cells: HEK293
T5 sequence (P48546 22-466 S382T): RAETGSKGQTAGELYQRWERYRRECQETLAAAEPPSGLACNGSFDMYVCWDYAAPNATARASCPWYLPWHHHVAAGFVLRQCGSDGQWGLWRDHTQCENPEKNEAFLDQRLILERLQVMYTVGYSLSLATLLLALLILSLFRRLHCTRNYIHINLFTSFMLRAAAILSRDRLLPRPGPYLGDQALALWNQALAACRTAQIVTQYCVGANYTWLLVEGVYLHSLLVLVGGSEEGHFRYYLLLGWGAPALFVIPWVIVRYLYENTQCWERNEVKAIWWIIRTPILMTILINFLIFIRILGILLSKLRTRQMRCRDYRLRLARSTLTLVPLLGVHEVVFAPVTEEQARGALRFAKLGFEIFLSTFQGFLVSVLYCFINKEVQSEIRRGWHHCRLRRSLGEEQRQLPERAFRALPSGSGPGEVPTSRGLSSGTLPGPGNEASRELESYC


How the values were obtained:
GIPR L304R = molecular target: T1, GIPR L304R; assay: cAMP accumulation; type: cell-based
Method: (§1) HEK293 (CRL-1573, American Type Culture Collection) and β-arrestin 1/2 knockout cells, generated from HEK293A[48], were used for cAMP measurement, homologues competition binding and β-arrestin 2 recruitment. […] Both cell lines were cultured at 5% CO2 at 37 °C in Roswell Park Memorial Institute GlutaMAX-I supplemented with 10% fetal bovine serum, 180 units ml^−1 penicillin, and 45 g ml^−1 streptomycin. For the cAMP and binding experiments, cells were transfected with the calcium phosphate precipitation method[49].
(§2) cAMP production was measured with the DiscoverX Hithunter cAMP assay according to the manufacturer’s protocol (DiscoverX). […] On the day of the assay, the cells were washed twice with HEPES-buffered saline (HBS) and incubated with HBS and 1 mM 3-isobutyl-1-methylxanthine for 30 min at 37 °C. […] After the incubation, the assay medium was removed from the plate and the cells were washed with 30 µl PBS and treated with 40 µl enzyme donor–lysis buffer–chemiluminescent reagents and 10 µl cAMP antibodies for 60 min before 40 µl enzyme acceptor solution added. After a 3-h incubation on a shaking table in the dark, the cAMP accumulation was measured based on luminescence with a Perkin Elmer EnVision 2104 Multilabel Microplate Reader. […]

GIPR variants (groups) [1] = assay: β-arrestin 2 recruitment (BRET); conditions: for In vitro groups (β-arrestin): arr part of the in vitro group; for Beta, Barr: in vitro β-arrestin recruitment per GIPR variant;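 for all read-outs here: BRET readout of β-arrestin 2 recruitment in transiently transfected HEK293 cells expressing WT GIPR or a GIPR variant plus GPCR kinase 2, Rluc8 donor and citrine acceptor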
GIPR variants (groups) [2] = assay: cAMP accumulation; type: cell-based, human; conditions: for In vitro groups (cAMP): cAMP part of the in vitro group; for percentage_camp: cAMP production compared with WT; for Beta, cAMP: in vitro cAMP production per GIPR variant
GIPR R336P = molecular target: T2, GIPR R336P; assay: cAMP accumulation; type: cell-based
Method: as §1, §2

GIPR E354Q = molecular target: T3, GIPR E354Q; assay: cAMP accumulation; type: cell-based
Method: as §1, §2

GIPR I378M = molecular target: T4, GIPR I378M; assay: cAMP accumulation; type: cell-based
Method: as §1, §2

GIPR S382T = molecular target: T5, GIPR S382T; assay: cAMP accumulation; type: cell-based
Method: as §1, §2

Molecule | Efficacy at 100pmol (cAMP) (GIPR L304R) | In vitro groups (β-arrestin) (GIPR variants (groups) [1]) | Beta, Barr (GIPR variants (groups) [1]) | In vitro groups (cAMP) (GIPR variants (groups) [2]) | percentage_camp (GIPR variants (groups) [2]) | Beta, cAMP (GIPR variants (groups) [2]) | Efficacy at 100pmol (cAMP) (GIPR R336P) | Efficacy at 100pmol (cAMP) (GIPR E354Q) | Efficacy at 100pmol (cAMP) (GIPR I378M) | Efficacy at 100pmol (cAMP) (GIPR S382T)
L304R (protein) RAETGSKGQTAGELYQRWERYRRECQETLAAAEPPSGLACNGSFDMYVCWDYAAPNATARASCPWYLPWHHHVAAGFVLRQCGSDGQWGLWRDHTQCENPEKNEAFLDQRLILERLQVMYTVGYSLSLATLLLALLILSLFRRLHCTRNYIHINLFTSFMLRAAAILSRDRLLPRPGPYLGDQALALWNQALAACRTAQIVTQYCVGANYTWLLVEGVYLHSLLVLVGGSEEGHFRYYLLLGWGAPALFVIPWVIVRYLYENTQCWERNEVKAIWWIIRTPIRMTILINFLIFIRILGILLSKLRTRQMRCRDYRLRLARSTLTLVPLLGVHEVVFAPVTEEQARGALRFAKLGFEIFLSSFQGFLVSVLYCFINKEVQSEIRRGWHHCRLRRSLGEEQRQLPERAFRALPSGSGPGEVPTSRGLSSGTLPGPGNEASRELESYC | 0.2373 | LoF_arr | 0.1329 | LoF_camp | <50% cAMP | 0.2373 | – | – | – | –
R336P (protein) RAETGSKGQTAGELYQRWERYRRECQETLAAAEPPSGLACNGSFDMYVCWDYAAPNATARASCPWYLPWHHHVAAGFVLRQCGSDGQWGLWRDHTQCENPEKNEAFLDQRLILERLQVMYTVGYSLSLATLLLALLILSLFRRLHCTRNYIHINLFTSFMLRAAAILSRDRLLPRPGPYLGDQALALWNQALAACRTAQIVTQYCVGANYTWLLVEGVYLHSLLVLVGGSEEGHFRYYLLLGWGAPALFVIPWVIVRYLYENTQCWERNEVKAIWWIIRTPILMTILINFLIFIRILGILLSKLRTRQMRCRDYPLRLARSTLTLVPLLGVHEVVFAPVTEEQARGALRFAKLGFEIFLSSFQGFLVSVLYCFINKEVQSEIRRGWHHCRLRRSLGEEQRQLPERAFRALPSGSGPGEVPTSRGLSSGTLPGPGNEASRELESYC | – | LoF_arr | 0.2102 | LoF_camp | <50% cAMP | 0.3193 | 0.3193 | – | – | –
E354Q (protein) RAETGSKGQTAGELYQRWERYRRECQETLAAAEPPSGLACNGSFDMYVCWDYAAPNATARASCPWYLPWHHHVAAGFVLRQCGSDGQWGLWRDHTQCENPEKNEAFLDQRLILERLQVMYTVGYSLSLATLLLALLILSLFRRLHCTRNYIHINLFTSFMLRAAAILSRDRLLPRPGPYLGDQALALWNQALAACRTAQIVTQYCVGANYTWLLVEGVYLHSLLVLVGGSEEGHFRYYLLLGWGAPALFVIPWVIVRYLYENTQCWERNEVKAIWWIIRTPILMTILINFLIFIRILGILLSKLRTRQMRCRDYRLRLARSTLTLVPLLGVHQVVFAPVTEEQARGALRFAKLGFEIFLSSFQGFLVSVLYCFINKEVQSEIRRGWHHCRLRRSLGEEQRQLPERAFRALPSGSGPGEVPTSRGLSSGTLPGPGNEASRELESYC | – | WT-like_arr | 0.9822 | WT-like_camp | >50% cAMP | 1.125 | – | 1.125 | – | –
I378M (protein) RAETGSKGQTAGELYQRWERYRRECQETLAAAEPPSGLACNGSFDMYVCWDYAAPNATARASCPWYLPWHHHVAAGFVLRQCGSDGQWGLWRDHTQCENPEKNEAFLDQRLILERLQVMYTVGYSLSLATLLLALLILSLFRRLHCTRNYIHINLFTSFMLRAAAILSRDRLLPRPGPYLGDQALALWNQALAACRTAQIVTQYCVGANYTWLLVEGVYLHSLLVLVGGSEEGHFRYYLLLGWGAPALFVIPWVIVRYLYENTQCWERNEVKAIWWIIRTPILMTILINFLIFIRILGILLSKLRTRQMRCRDYRLRLARSTLTLVPLLGVHEVVFAPVTEEQARGALRFAKLGFEMFLSSFQGFLVSVLYCFINKEVQSEIRRGWHHCRLRRSLGEEQRQLPERAFRALPSGSGPGEVPTSRGLSSGTLPGPGNEASRELESYC | – | GoF_arr | 1.357 | WT-like_camp | >50% cAMP | 0.8167 | – | – | 0.8167 | –
S382T (protein) RAETGSKGQTAGELYQRWERYRRECQETLAAAEPPSGLACNGSFDMYVCWDYAAPNATARASCPWYLPWHHHVAAGFVLRQCGSDGQWGLWRDHTQCENPEKNEAFLDQRLILERLQVMYTVGYSLSLATLLLALLILSLFRRLHCTRNYIHINLFTSFMLRAAAILSRDRLLPRPGPYLGDQALALWNQALAACRTAQIVTQYCVGANYTWLLVEGVYLHSLLVLVGGSEEGHFRYYLLLGWGAPALFVIPWVIVRYLYENTQCWERNEVKAIWWIIRTPILMTILINFLIFIRILGILLSKLRTRQMRCRDYRLRLARSTLTLVPLLGVHEVVFAPVTEEQARGALRFAKLGFEIFLSTFQGFLVSVLYCFINKEVQSEIRRGWHHCRLRRSLGEEQRQLPERAFRALPSGSGPGEVPTSRGLSSGTLPGPGNEASRELESYC | – | LoF_arr | 0.05782 | LoF_camp | <50% cAMP | 0.1068 | – | – | – | 0.1068
